# Biological target: TsCC(A)-(RGG)3-GFP scaffold (Caenorhabditis elegans)
# Test: integrated fluorescence intensity in condensates over whole cell, U2OS cells
substance,measurement,value
Rac1-mCherry-TsCC(B) (from UniProt P63000 1-189),fraction of client localized to the synthetic organelle,50%
